In paper PMC7949036, “Zinc transporter mutations linked to acrodermatitis enteropathica disrupt function and cause mistrafficking” (The Journal of Biological Chemistry, 2021):

B1: extracellular domain of ZIP4 from Pteropus alecto (black fruit bat), wild type (domain or fragment, UniProt L5KLU7 36-322, looked up)
chain: SGQGALDRVALGGLLNTLAARVHCTSGPCGKCLSVDDLLALGRPEEPGHLARLSAAAALYLSDPEGTCEDIRAGRWASRADHLLALLEGPKALAPGLSRLLQRIQAQTTGQPSAGEACVDPPQLLREAGVAGAPGSPGPVLATLLEHVGRGSCFHTLPTPQYFVDFVFQQSHGNTPNISVAELAALMQRLGVGGVTETHSDHHHQEKRVNRQGPTPLTAPNSSSDTWDTVCLSARDVMAVYGLSEQTGVTPEAWAQLSPALLQQQLSGACSPQPSHPAQNQLSQAEK
notes: ZIP4 (zinc transporter, SLC39A family) of Pteropus alecto, extracellular domain, residues 36-322 of ELK11751; His6 tag removed by thrombin; also called pZIP4-ECD; wild-type pZIP4-ECD; source: E. coli Origami B(DE3) pLysS, purified (Ni-NTA, Mono-Q, SEC); not shown: His6, N-terminal, cleaved
B2: pZIP4-ECD A91T variant (domain or fragment, Pteropus alecto, UniProt L5KLU7 36-322, looked up)
chain: SGQGALDRVALGGLLNTLAARVHCTSGPCGKCLSVDDLLALGRPEEPGHLARLSATAALYLSDPEGTCEDIRAGRWASRADHLLALLEGPKALAPGLSRLLQRIQAQTTGQPSAGEACVDPPQLLREAGVAGAPGSPGPVLATLLEHVGRGSCFHTLPTPQYFVDFVFQQSHGNTPNISVAELAALMQRLGVGGVTETHSDHHHQEKRVNRQGPTPLTAPNSSSDTWDTVCLSARDVMAVYGLSEQTGVTPEAWAQLSPALLQQQLSGACSPQPSHPAQNQLSQAEK
notes: ZIP4 of Pteropus alecto, extracellular domain, residues 36-322 of ELK11751, with A91T (equivalent to A99T of human ZIP4); source: E. coli Origami B(DE3) pLysS, purified (Ni-NTA, Mono-Q, SEC); not shown: His6, N-terminal, cleaved
B3: pZIP4-ECD R87C variant (domain or fragment, Pteropus alecto, UniProt L5KLU7 36-322, looked up)
chain: SGQGALDRVALGGLLNTLAARVHCTSGPCGKCLSVDDLLALGRPEEPGHLACLSAAAALYLSDPEGTCEDIRAGRWASRADHLLALLEGPKALAPGLSRLLQRIQAQTTGQPSAGEACVDPPQLLREAGVAGAPGSPGPVLATLLEHVGRGSCFHTLPTPQYFVDFVFQQSHGNTPNISVAELAALMQRLGVGGVTETHSDHHHQEKRVNRQGPTPLTAPNSSSDTWDTVCLSARDVMAVYGLSEQTGVTPEAWAQLSPALLQQQLSGACSPQPSHPAQNQLSQAEK
notes: ZIP4 of Pteropus alecto, extracellular domain, residues 36-322 of ELK11751, with R87C (equivalent to R95C of human ZIP4); source: E. coli Origami B(DE3) pLysS, purified (Ni-NTA, Mono-Q, SEC); not shown: His6, N-terminal, cleaved
B4: pZIP4-ECD C64R variant (domain or fragment, Pteropus alecto, UniProt L5KLU7 36-322, looked up)
chain: SGQGALDRVALGGLLNTLAARVHCTSGPRGKCLSVDDLLALGRPEEPGHLARLSAAAALYLSDPEGTCEDIRAGRWASRADHLLALLEGPKALAPGLSRLLQRIQAQTTGQPSAGEACVDPPQLLREAGVAGAPGSPGPVLATLLEHVGRGSCFHTLPTPQYFVDFVFQQSHGNTPNISVAELAALMQRLGVGGVTETHSDHHHQEKRVNRQGPTPLTAPNSSSDTWDTVCLSARDVMAVYGLSEQTGVTPEAWAQLSPALLQQQLSGACSPQPSHPAQNQLSQAEK
notes: ZIP4 of Pteropus alecto, extracellular domain, residues 36-322 of ELK11751, with C64R (equivalent to C62R of human ZIP4); source: E. coli Origami B(DE3) pLysS, purified (Ni-NTA, Mono-Q, SEC); not shown: His6, N-terminal, cleaved
B5: pZIP4-ECD P193L variant (domain or fragment, Pteropus alecto, UniProt L5KLU7 36-322, looked up)
chain: SGQGALDRVALGGLLNTLAARVHCTSGPCGKCLSVDDLLALGRPEEPGHLARLSAAAALYLSDPEGTCEDIRAGRWASRADHLLALLEGPKALAPGLSRLLQRIQAQTTGQPSAGEACVDPPQLLREAGVAGAPGSPGPVLATLLEHVGRGSCFHTLLTPQYFVDFVFQQSHGNTPNISVAELAALMQRLGVGGVTETHSDHHHQEKRVNRQGPTPLTAPNSSSDTWDTVCLSARDVMAVYGLSEQTGVTPEAWAQLSPALLQQQLSGACSPQPSHPAQNQLSQAEK
notes: ZIP4 of Pteropus alecto, extracellular domain, residues 36-322 of ELK11751, with P193L (equivalent to P200L of human ZIP4); source: E. coli Origami B(DE3) pLysS, purified (Ni-NTA, Mono-Q, SEC); not shown: His6, N-terminal, cleaved
B6: hZIP4 (human ZIP4): N261Q (protein)
parent chain: MASLVSLELGLLLAVLVVTATASPPAGLLSLLTSGQGALDQEALGGLLNTLADRVHCANGPCGKCLSVEDALGLGEPEGSGLPPGPVLEARYVARLSAAAVLYLSNPEGTCEDARAGLWASHADHLLALLESPKALTPGLSWLLQRMQARAAGQTPKMACVDIPQLLEEAVGAGAPGSAGGVLAALLDHVRSGSCFHALPSPQYFVDFVFQQHSSEVPMTLAELSALMQRLGVGREAHSDHSHRHRGASSRDPVPLISSSNSSSVWDTVCLSARDVMAAYGLSEQAGVTPEAWAQLSPALLQQQLSGACTSQSRPPVQDQLSQSERYLYGSLATLLICLCAVFGLLLLTCTGCRGVTHYILQTFLSLAVGAVTGDAVLHLTPKVLGLHTHSEEGLSPQPTWRLLAMLAGLYAFFLFENLFNLLLPRDPEDLEDGPCGHSSHSHGGHSHGVSLQLAPSELRQPKPPHEGSRADLVAEESPELLNPEPRRLSPELRLLPYMITLGDAVHNFADGLAVGAAFASSWKTGLATSLAVFCHELPHELGDFAALLHAGLSVRQALLLNLASALTAFAGLYVALAVGVSEESEAWILAVATGLFLYVALCDMLPAMLKVRDPRPWLLFLLHNVGLLGGWTVLLLLSLYEDDITF

Legend:
[1] = target: the molecule itself; experiment: SEC; Superdex 200 10/300GL, 10 mM HEPES pH 7.3, 100 mM NaCl; apparent molecular weight estimated from protein standards; native purified protein
[2] = cell-based 65Zn uptake, HEK293T; settings: glycan lost; control: wild type
[3] = confocal immunofluorescence, FITC anti-HA, nonpermeabilized cells; settings: glycan lost; control: wild type

Row | Protein | binding result [1] | also measured
1 | B1 | – | stoichiometry N [1]: 2
2 | B2 | binds | –
3 | B3 | binds | –
4 | B4 | binds | –
5 | B5 | binds | –
6 | B6 | – | other: transport activity [2]: decreases; localisation_or_trafficking [3]: no change
